These results are taken from patent US20140187743A1, “SURFACE-ACTIVE COLLAGEN MEMBRANE BY PEPTIDE” (priority 2011, published 2014).

Series [1] has as its system circular skull defect of rabbits. Nature of the series: In vivo bone regeneration of peptide-bound collagen membrane in circular skull defect. More on the design: species or system New Zealand white rabbits. As to conditions: 8 mm circular skull defect, 4 weeks after transplantation; compared to membranes with SEQ ID NO: 1 or 9. The text has this:
In still another example of the present invention, in order to examine the in vivo bone regeneration ability of the fusion peptide that binds to the collagen membrane and has the ability to regenerate bone tissue, each of the peptides of SEQ ID NOS: 1, 9 and 24 was bound to the collagen membrane, and then transplanted into the circular skull defect of rabbits, and the bone regeneration ability was examined. Specifically, a circular bone defect having a diameter of 8 mm was formed in the skull of anesthetized rabbits and covered with the collagen membrane, and the periosteum and the skin were doubly sutured. At 4 weeks after the transplantation, the animal was sacrificed, and the collected sample was fixed in a formalin solution. The tissue was embedded to prepare a sample having a thickness of 20 μm. The sample was stained with fuchsin and toluidine blue to prepare a nondemineralized sample. […] Each of the peptides of SEQ ID NOS: 1, 9 and 24, prepared in Example 1, was bound to a collagen membrane according to the method of Example 2, and then transplanted into the circular skull defect of rabbits, and the bone regeneration ability was examined. […]

Another series has as its system collagen membrane. Nature of the series: Peptide release (elution) test from collagen membrane in PBS, HPLC. The format is binding, porcine. Particulars: for Release of the peptide from collagen membrane: eluate in PBS at 37° C. How it is done: In still another example of the present invention, in order to examine the collagen-binding ability of the fusion peptide that binds specifically to collagen, porcine sink-derived collagen was dissolved in 0.1M HCl at a concentration of 1%(w/v), the pH was neutralized, and the collagen solution was concentrated to 4% by evaporating the solvent. To prepare a membrane, the concentrated collagen solution was poured into a […] diameter dish and mixed, and to prepare a three-dimensional scaffold, the collagen solution was poured onto a 24-well plate for cell culture and mixed. Next, 1% glutaraldehyde or 1% glyceraldehyde was added to crosslink the collagen solution, which was then washed with distilled water and freeze-dried. The resulting membrane having a size of 1×1 cm and a thickness of 250 μm was wet with 10 mg of the fusion peptide of SEQ ID NO: 24 in 100 μl of DW, washed with PBS and freeze-dried. The collagen membrane having the peptide bound thereto was added to PBS and subjected to a peptide release teat at 37° C. After 7 days, 10 ml of the elution solvent added was completely removed, after which 10 ml of a fresh elution solvent was added to the collagen membrane which was then eluted at 37° C. for 4 weeks. After completion of the elution, the membrane was collected and the peptide content thereof was measured.
1 g of porcine skin-derived collagen was dissolved in 100 ml of 0.1M HCl at a concentration of 1%(w/v), and then the pH of the collagen solution was neutralized, and the solvent was evaporated to the collagen solution to 4%.
In order to prepare a membrane, 8 ml of the concentrated collagen solution was poured in a […]-diameter dish and mixed, and in order to prepare a three-dimensional scaffold, 1 ml of the collagen solution was poured in a 24-well plate for cell culture and mixed. Then, 1% glutaraldehyde or 1% glyceraldehydes was added to crosslink the collagen solution, and the crosslinked collagen was washed with distilled water and freeze-dried (see FIG. 1).
0.038 g of the prepared membrane having a size of 1×1 cm and a thickness of 250 μm fall was wet with 10 mg of the fusion peptide of SEQ ID NO: 24 in 100 μl of deionized water (DW), allowed to stand at 4° C. for 8 hours, washed with PBS, and freeze-dried. The collagen membrane having the peptide bound thereto was added to 10 ml of PBS and subjected to a peptide release test at 37° C.
After 7 days, 10 ml of the elution solvent added was completely removed, and then 10 ml of a fresh elution solvent was added to the collagen membrane which was then eluted at 37° C. for 4 weeks. After completion of the elution, the membrane was collected and the peptide content thereof was measured.
0.038 g of the membrane having the peptide bound thereto was precisely weighed, and 5 ml of mobile phase solvent A was added thereto, followed by sonication for 1 hour. Next, 5 ml of mobile phase solvent B was added to and mixed with the membrane solution, and then the mixture was centrifuged at 4500 rpm for 30 minutes. 1 ml of the supernatant was taken and filtered through a 0.22 millipore filter to obtain a sample solution.
A peptide standard was dried in a desiccator (silica gel) for 5 hours, and about 10 mg of the dried peptide was dissolved in mobile phase solvent A. 10 ml of the solution was used as a standard solution. […]

A further series deals with E. coli. Nature of the series: Antibacterial test by agar diffusion method, inhibition diameter of peptide-bound collagen membrane. The series is classed as cell-based. Particulars: for Antibacterial activity (inhibition diameter) of peptide-bound collagen membrane: incubated for 3 days on E. coli plate. How it is done: In another example of the present invention, in order to examine the antibacterial activity of an antibacterial fusion peptide that binds specifically to collagen, a collagen membrane was prepared using each of the peptides of SEQ ID NO: 1, the peptide of SEQ ID NO: 26 and the peptide of SEQ ID NO: 29 in the same manner as described in Example 2. The prepared collagen membrane was washed in PBS for 1 hour and dried in air. To evaluate the antibacterial activity of the peptide, an antibacterial test was performed according to an agar diffusion method. Specifically, E. coli cells were cultured in TSB medium until the absorbance at 620 nm reached 1, and then the cells were harvested and used in the test. The harvested cells were diluted with PBS, and 10^5-10^7 bacterial cells per ml were plated on a TSA plate and incubated at 37° C for 24 hours. On the plate having the incubated bacterial cells thereon, a collagen membrane having each of the peptides of SEQ ID NOS: 1, 26 and 29 bound thereto was placed and incubated for 3 days. Then, the inhibition diameter against the growth of the bacterial cells was measured. […] Using each of the peptides of SEQ ID NOS: 1, 26 and 29, collagen membranes were prepared in the same manner as described in Example 2. Each of the prepared collagen membranes was allowed to stand in 10 ml of PBS for 1 hour and dried in air. To evaluate the antibacterial activity of the peptides, an antibacterial test was performed according to the agar diffusion method. Specifically, E. coli cells were cultured in TSB (tryptic soy broth) medium until the absorbance at 620 nm reached 1, and then the cells were harvested and used in the test. The harvested cells were diluted with PBS, and 10^5-10^7 bacterial cells per ml were plated on a TSA plate and incubated at 37° C. for 24 hours. On the plate having the incubated bacterial cells thereon, a collagen membrane having each of the peptides of SEQ ID NOS: 1, 26 and 29 bound thereto was placed and incubated for 3 days, and then the inhibition diameter against the bacterial cells was inhibited was measured.

For series [2] the following is noted: rabbit, in vivo. The text has this: In still another example of the present invention, in order to examine the in vivo stability of the fusion peptide that binds to collagen and has the ability to regenerate bone tissue, the peptide of SEQ ID NO: 24 labeled with FITC was bound to the collagen membrane which was then transplanted into a rabbit skull defect. […] Before and at days 1, 3, 7, 14, 21 and 28 after the membrane bound to the peptide of SEQ ID NO: 24 labeled with FITC was transplanted into the rabbit skull defect, the blood was collected and whether the peptide was released into the systemic blood was measured using a fluorometer. […] The peptide of SEQ ID NO: 24 labeled with FITC was bound to a collagen membrane in the same manner as described in Example 2. The collagen membrane was transplanted into the skull defect of a rabbit, and after 4 weeks, the membrane transplanted into the skull defect was observed by confocal microscopy (Olympus, Japan). Before and at days 1, 3, 7, 14, 21 and 28 after 10 mg of the peptide of SEQ ID NO: 24 labeled with FITC was transplanted into the rabbit skull defect, the blood was collected and whether the peptide was released into the systemic blood was measured using a fluorometer.

The target of series [3] is collagen membrane prepared from porcine skin-derived collagen (porcine). The series is described as follows: release test in PBS at 37 C, HPLC of the eluate.
The target is the same in series [4]. Nature of the series: HPLC of peptide extracted from the membrane after 4 weeks of elution in PBS at 37 C.
The mark [5] stands for this setting: after washing in PBS for 1 hour.

Values joined by “and” are separate entries in the source; they are usually repeats but may differ in a detail not shown here. Equal values may be shown once. Where no end group is shown, it is not given here. The star is where a group is joined. FITC = O=C1OC2(c3ccc(O)cc3Oc3cc(O)ccc32)c2ccc(NC(=S)*)cc21

Sequence of collagen membrane prepared from porcine skin-derived collagen (porcine) (P12675 whole entry): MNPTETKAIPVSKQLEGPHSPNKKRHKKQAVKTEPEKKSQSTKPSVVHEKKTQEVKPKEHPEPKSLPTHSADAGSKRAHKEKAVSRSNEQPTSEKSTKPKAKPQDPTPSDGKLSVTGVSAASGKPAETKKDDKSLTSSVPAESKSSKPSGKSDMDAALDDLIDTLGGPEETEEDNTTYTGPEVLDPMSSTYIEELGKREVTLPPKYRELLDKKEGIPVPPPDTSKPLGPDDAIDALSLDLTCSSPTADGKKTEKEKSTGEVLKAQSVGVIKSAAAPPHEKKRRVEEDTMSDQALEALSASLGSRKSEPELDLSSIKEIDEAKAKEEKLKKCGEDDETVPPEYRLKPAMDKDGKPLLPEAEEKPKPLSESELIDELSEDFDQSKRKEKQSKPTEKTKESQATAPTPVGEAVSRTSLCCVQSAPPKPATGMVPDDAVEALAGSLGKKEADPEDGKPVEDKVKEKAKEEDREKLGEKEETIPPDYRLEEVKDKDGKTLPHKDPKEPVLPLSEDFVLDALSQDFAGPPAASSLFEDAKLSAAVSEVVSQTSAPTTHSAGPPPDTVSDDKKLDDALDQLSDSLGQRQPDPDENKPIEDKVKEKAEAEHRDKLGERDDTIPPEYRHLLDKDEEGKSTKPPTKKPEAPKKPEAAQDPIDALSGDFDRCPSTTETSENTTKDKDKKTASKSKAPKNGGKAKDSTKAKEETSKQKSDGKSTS

Turning to “GLRSKSKKFRRPDIQYPDARHPLYVDFSDVGWNDWIVA (Collagen Binding Peptide) [SEQ ID NO: 24]”, in series [1], the “Bone regeneration ability of the collagen membrane having the peptide bound” value is recorded as “increased”. Further, the “Peak of the peptide in the eluate” value with collagen membrane (4 week elution test, retention time of 13 minutes, Lot Nos. 1, 2 and 3) is reported as “not observed”. In addition, the “Content of the peptide remaining on collagen membrane” value in the series with collagen membrane (after completion of the 4 week elution at 37° C., Lot Nos. 1-3, 10 mg peptide loaded) is 9.2 mg and 9.43 mg and 9.68 mg and 9.20 mg. In addition, the “Release of the peptide from collagen membrane” value turned out to be 0 mg with collagen membrane (day 7, Lot Nos. 1-3, 10 mg peptide loaded); 0 mg in the series with collagen membrane (day 14, Lot Nos. 1-3, 10 mg peptide loaded); 0 mg with collagen membrane (day 28, Lot Nos. 1-3, 10 mg peptide loaded).
“GLRSKSKKFRRPDIQYPDA (Collagen Binding Peptide) [SEQ ID NO: 1]”: the “Antibacterial activity (inhibition diameter) of peptide-bound collagen membrane” value in the series with E. coli (setting [5]) and in the series with E. coli (before washing) was “no antibacterial activity” throughout.
On to “GKCSTRGRKCCRRKK (hBD3-3) [SEQ ID NO: 26, antibacterial peptide derived from human beta-defensin-3]”, for which the “Decrease of antibacterial activity after washing” value with E. coli (after washing in PBS for 1 hour versus before washing) is listed as “about 50%”. Also, in the series with E. coli (before washing), the “Antibacterial activity (inhibition diameter) of peptide-bound collagen membrane” value is “highest antibacterial activity”.
“SEQ ID NO: 24 labeled with FITC: FITC (fluorescein isothiocyanate) bound to the N-terminus of the peptide of SEQ ID NO: 24 ({FITC}-GLRSKSKKFRRPDIQYPDARHPLYVDFSDVGWNDWIVA)”: the “Spread of the peptide to the surrounding tissue (confocal microscopy)” value in series [2] is reported as “did not spread to the surrounding tissue”.
On to “GLRSKSKKFRRPDIQYPDAGKCSTRGRKCCRRKK (Collagen Binding Peptide; hBD3-3) [SEQ ID NO: 29]”, for which, in the series with E. coli (setting [5]), the “Antibacterial activity (inhibition diameter) of peptide-bound collagen membrane” value is recorded as “maintained its antibacterial activity”.

B1: fusion peptide of SEQ ID NO: 24 (fusion peptide for bone tissue regeneration that binds specifically to collagen) (peptide)
peptide: GLRSKSKKFRRPDIQYPDARHPLYVDFSDVGWNDWIVA
As to B1, the peptide released from collagen membrane in series [3] was determined as 0 mg. In addition, in series [4], the content of the peptide remaining on collagen membrane (of 10 mg applied) is 9.2 mg and 9.43 mg and 9.68 mg.
